The source of these data is patent publication US20240352098A1 (AstraZeneca / MedImmune, published 2024).

The target in assay [1] is T1, ClfA (Staphylococcus aureus).
T1 chain: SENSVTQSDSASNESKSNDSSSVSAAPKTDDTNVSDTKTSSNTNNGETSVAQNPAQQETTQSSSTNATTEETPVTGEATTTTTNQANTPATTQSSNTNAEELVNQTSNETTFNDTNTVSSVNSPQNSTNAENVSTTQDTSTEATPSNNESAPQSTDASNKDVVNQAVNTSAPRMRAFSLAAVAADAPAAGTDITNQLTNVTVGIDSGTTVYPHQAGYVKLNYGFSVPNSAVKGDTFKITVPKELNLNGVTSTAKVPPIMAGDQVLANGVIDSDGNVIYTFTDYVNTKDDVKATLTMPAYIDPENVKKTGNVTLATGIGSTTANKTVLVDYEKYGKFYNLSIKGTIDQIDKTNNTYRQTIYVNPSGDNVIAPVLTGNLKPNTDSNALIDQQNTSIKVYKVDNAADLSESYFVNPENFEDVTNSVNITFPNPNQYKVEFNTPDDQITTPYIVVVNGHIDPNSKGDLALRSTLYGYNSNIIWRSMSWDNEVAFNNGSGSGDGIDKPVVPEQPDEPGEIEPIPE
In words: fibrinogen binding inhibition ('Fg IH' / 'fibrinogen assay'); blocked ligand fibrinogen; sample before light exposure; ClfA genotype not stated; printed in both tables.

Assay [2] concerns the target T1, ClfA. In words: fibrinogen binding inhibition ('Fg IH' / 'fibrinogen assay'); blocked ligand fibrinogen; sample after 1 week of light exposure; ClfA genotype not stated; printed in both tables.
Assay [3] addresses T1, ClfA. In words: fibrinogen binding inhibition ('Fg IH' / 'fibrinogen assay'); blocked ligand fibrinogen; sample after 2 weeks of light exposure; ClfA genotype not stated; printed in both tables.
Assay [4] deals with T1, ClfA. As to the kind of experiment: fibrinogen binding inhibition ('IC50 (ug/ml) fibrinogen assay'); blocked ligand fibrinogen; sample after 2 weeks of light exposure; ClfA genotype not stated; printed only in the right-hand table.
The target of assay [5] is T2, S. aureus clumping factor A, founder genotype ClfA004 (Staphylococcus aureus).
T2 construct: range 221-559
As to the kind of experiment: ELISA, inhibition of ClfA binding to immobilised fibrinogen. On the technique in general: ELISA stands for enzyme-linked immunosorbent assay.

The target of assay [6] is T3, S. aureus clumping factor A, founder genotype ClfA002 (Staphylococcus aureus, UniProt Q99VJ4 221-559).
T3 sequence: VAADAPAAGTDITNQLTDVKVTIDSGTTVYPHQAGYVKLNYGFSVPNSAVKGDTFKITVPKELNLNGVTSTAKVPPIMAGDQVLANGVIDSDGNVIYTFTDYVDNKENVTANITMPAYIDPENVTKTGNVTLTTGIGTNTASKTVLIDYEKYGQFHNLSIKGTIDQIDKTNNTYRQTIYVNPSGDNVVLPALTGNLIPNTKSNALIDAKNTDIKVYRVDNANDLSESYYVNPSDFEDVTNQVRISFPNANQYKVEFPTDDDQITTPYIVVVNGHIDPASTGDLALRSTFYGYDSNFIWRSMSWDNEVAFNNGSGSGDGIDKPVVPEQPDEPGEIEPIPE
The assay is described as above.

Assay [7] has as its target T2, S. aureus clumping factor A, founder …. As to the kind of experiment: Biacore. For orientation: SPR reads the build-up and loss of mass on a sensor chip optically.
The target of assay [8] is T3, S. aureus clumping factor A, founder …. In words: Biacore.
For assay [9], the target named is T2, S. aureus clumping factor A, founder …. In words: fibrinogen binding inhibition assay (ClfA binding to fibrinogen).
In assay [10] the target is T3, S. aureus clumping factor A, founder …. The assay is described as above.
For assay [11], the target named is T2, S. aureus clumping factor A, founder …. As to the kind of experiment: inhibition of ClfA binding to fibrinogen.
Assay [12] addresses T3, S. aureus clumping factor A, founder …. As to the kind of experiment: inhibition of ClfA binding to fibrinogen.
Assay [13] has as its target T2, S. aureus clumping factor A, founder …. As to the kind of experiment: fibrinogen binding inhibition assay (FIG. 1B).
Assay [14] deals with T3, S. aureus clumping factor A, founder …. As to the kind of experiment: fibrinogen binding inhibition assay (FIG. 1B).
For assay [15] the target is unchanged.
Assay [16] deals with T2, S. aureus clumping factor A, founder ….
Assay [17] has the same target. As to the kind of experiment: affinity kinetics, method not named (Table 1).
The target in assay [18] is T3, S. aureus clumping factor A, founder …. In words: affinity kinetics, method not named (Table 1).
In assay [19] the target is T2, S. aureus clumping factor A, founder …. As to the kind of experiment: Biacore, antibody captured, ClfA as sample.
The target of assay [20] is T3, S. aureus clumping factor A, founder …. As to the kind of experiment: Biacore, antibody captured, ClfA as sample.

Where a chain is given by its changes, count along the chain named. In names and notes the source's numbering stands.

B1: N3F (antibody)
heavy: QVQLQESGPGLVKPSETLSLTCTVSGGSIQNSYWSWIRQPPGKGLEWIGYLYSSGRTNYTPSLKSRVTISVDTSKNQFSLKLSSVTAADTAVYYCARTHLGGFHYGGGFWFDPWGQGTLVTVSSASTKGPSVFPLAPSSKSTSGGTAALGCLVKDYFPEPVTVSWNSGALTSGVHTFPAVLQSSGLYSLSSVVTVPSSSLGTQTYICNVNHKPSNTKVDKRVEPKSCDKTHTCPPCPAPELLGGPSVFLFPPKPKDTLMISRTPEVTCVVVDVSHEDPEVKFNWYVDGVEVHNAKTKPREEQYNSTYRVVSVLTVLHQDWLNGKEYKCKVSNKALPAPIEKTISKAKGQPREPQVYTLPPSREEMTKNQVSLTCLVKGFYPSDIAVEWESNGQPENNYKTTPPVLDSDGSFFLYSKLTVDKSRWQQGNVFSCSVMHEACSFHLCQKSLSLSPGK
light: DIQMTQSPSSLSASVGDRVTITCRASQSITSYLNWYQQKPGKAPKLLIYASSSLQSGVPSRFSGSGSGTDFTLTISSLQPEDFATYYCQESYSTPPTFGQGTKVEIKRTVAAPSVFIFPPSDEQLKSGTASVVCLLNNFYPREAKVQWKVDNALQSGNSQESVTEQDSKDSTYSLSSTLTLSKADYEKHKVYACEVTHQGLSSPVTKSFNRGEC
notes: copies: 2 + 2
As for B1, the IC50 (commonly the concentration that inhibits the measured activity by half) was 9.95 µg/mL in the assay with ClfA [1], 19.9 µg/mL with ClfA [2] and 27.8 µg/mL in the assay with ClfA [3].

B2: N3Y (antibody)
heavy chain: B1 heavy with F441Y
light chain: B1 light
For the molecule B2, the IC50 with ClfA [1] came out at 6.28 µg/mL; with ClfA [2] it was 9.2 µg/mL; with ClfA [4], 12.7 µg/mL.

B3: SAR114 anti-ClfA monoclonal antibody (antibody)
heavy: not shown
light: B1 light
Consider B3, for which the half-maximal inhibitory concentration (IC50) is 8.08 nM in assay [5]; 14.3 nM in [6]; 1.63 µg/mL in assay [9]; 1.16 µg/mL in [10]; 1.72 µg/mL in assay [11]; 2.91 µg/mL in [12]. Also, the IC50 in [13] and in [14] was roughly 20 µM in each case. Further, the “fold tighter binding (KD) than SAR114-N3” value in assay [7] and in assay [8] was roughly 10 fold each time. The “IC50 (read off the curve)” value in [15] is roughly 10 µM; in assay [16] it was roughly 30 µM. Besides, the Kd (usually the equilibrium constant for the complex coming apart) in [17] turned out to be 1.15 pM; in [18], 0.0448 nM; in assay [19], 0.0209 nM; in [20], 0.0477 nM. Besides, the koff (usually the rate constant with which the complex falls apart) was 6.46e-06 s⁻¹ in [17], 9.53e-05 s⁻¹ in assay [18], 6.21e-05 s⁻¹ in assay [19] and 0.000182 s⁻¹ in [20]. Besides, the kon (as a rule, the rate constant with which the complex forms) in assay [17] is 5.62e+06 M⁻¹ s⁻¹; in assay [18], 2.13e+06 M⁻¹ s⁻¹; in assay [19] it was 2.97e+06 M⁻¹ s⁻¹; in assay [20], 3.82e+06 M⁻¹ s⁻¹.

B4: SAR114-N3 (antibody)
heavy: B1 heavy with F441W
light: B1 light
The molecule B4 yielded an IC50 in assay [11] of 2.52 µg/mL. For the same molecule, the half-maximal inhibitory concentration (IC50) in assay [12] stood at 3.11 µg/mL. In assay [19], this molecule displayed a dissociation constant (Kd) of 0.316 nM, a koff of 0.000756 s⁻¹ and a kon of 2.39e+06 M⁻¹ s⁻¹. In assay [20], this molecule yielded a Kd of 0.265 nM, a koff of 0.00104 s⁻¹ and an association rate constant (kon) of 3.92e+06 M⁻¹ s⁻¹.
